Measured values taken from paper PMC6753139, “TRIM66 reads unmodified H3R2K4 and H3K56ac to respond to DNA damage in embryonic stem cells” (Nature Communications, 2019).
Where no end group is shown, it is not given here. [ ]: non-standard residue; d: D form. Arg(Me2a) = CN(C)C(=N)NCCC[C@H](N)C(=O)O; Arg(Me) = CNC(=N)NCCC[C@H](N)C(=O)O

What was measured:
[1] = target: TRIM66-WT_(965-1160) (human) (UniProt O15016); assay: ITC; 0.7–4 mM peptide injected into a cell with 0.05 or 0.11–[…] TRIM66-PHD-Bromo (or its mutants), 0.12 mM TRIM24-PHD-Bromo or 0.05 mM TRIM33 PHD-Bromo; 25 °C; 20 mM Tris, 100 mM NaCl, pH 7.5; MicroCal PEAQ-ITC; single measurement
[2] = target: TRIM66-WT_(965-1160) (PHD-Bromodomain) (human) (UniProt O15016); assay: ITC; MicroCal PEAQ-ITC, 25 °C, 20 mM Tris, 100 mM NaCl, pH 7.5; 0.7-4 mM peptide injected into the cell with 0.12 mM TRIM24-PHD-Bromo, 0.05 mM TRIM33 PHD-Bromo, or 0.05 or 0.11-[…] TRIM66-PHD-Bromo (or its mutants); single measurement, errors from the fitting curve
[3] = target: T1, TRIM66-WT965-1160 (Homo sapiens, UniProt O15016); assay: ITC, PHD-Bromodomain wild type; assay type: binding; settings: for Kd / KD: MicroCal PEAQ-ITC, 20 mM Tris, 100 mM NaCl, error from curve fit, Weak binding = ITC curves cannot be fitted reliably, N.D. = no detectable binding
T1 construct: ITC titration: titrating TRIM66-WT965-1160 with various histone H3 peptides; GST (N, cleaved yes); made in house; host or cells: Escherichia coli BL21 (DE3)
T1 sequence (O15016 1100-1295): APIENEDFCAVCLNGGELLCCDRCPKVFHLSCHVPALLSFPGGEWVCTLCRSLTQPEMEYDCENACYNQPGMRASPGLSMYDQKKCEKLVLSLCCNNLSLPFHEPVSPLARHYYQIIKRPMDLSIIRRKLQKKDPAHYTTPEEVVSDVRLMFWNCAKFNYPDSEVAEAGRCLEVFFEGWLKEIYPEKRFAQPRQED
From the text: We next performed the glutathione S-transferase (GST) pulldown assays of the TRIM66-WT965-1160 against the calf thymus histones to verify the histone-binding ability of TRIM66 PHD-Bromodomain. […] The PHD of TRIM66 shared a low conservation with those of ING4, PHF2, and BPTF, and lacked the conserved aromatic residues, which were necessary for binding H3K4me2/3[40]–[42] (Supplementary Fig. 2b). Nevertheless, TRIM66 was highly conserved in sequence and structure with the PHDs of TRIM24 and TRIM33 (Fig. 1c and Supplementary Fig. 2b), which were reported to bind H3K4me0[5],[6]; thus, we speculated that the PHD of TRIM66 could bind H3K4me0. To verify this hypothesis, we performed isothermal titration calorimetry (ITC)-based binding assays. […] Based on previous researches reporting the acetyl-lysine binding partners of Bromodomain[3]–[12], we chose a series of related peptides derived from H3 and H4, to test their interactions with TRIM66-WT965-1160 by ITC experiments. […] We further found the acetylated state of K56 was necessary for this binding (Supplementary Fig. 3b).
We next titrated the TRIM66-WT965-1160 with a series of R2-methylated H3 peptides through ITC assays. […] This finding was consistent with the structural observation that each NηH atom of the R2 formed a hydrogen bond with residues in protein (Fig. 2d).
The DNA fragments of human TRIM66_968-1160, TRIM24_824-1006, and TRIM33_882-1087 were amplified from a human bone marrow cDNA library using a PCR-based cloning strategy. The fragments of TRIM66-WT968-1160 were inserted into a pGEX-4T-1 plasmid (GE Healthcare). The fragments of TRIM24_824-1006 and TRIM33_882-1087 were ligated into a pET-SUMO-28a (+) plasmid (Novagen). The DNA fragments of TRIM66-MUT968-1160 and TRIM66-WT965-1160 with codon optimization were synthesized by General Biosystems (sequence was shown in Supplementary Methods) and inserted into a pGEXT-4T-1 plasmid (GE Healthcare). Mutants of TRIM66 PHD-Bromo were generated through PCR using the Mutant Best kit (Takara). The mutation of point mutant based on the codon-optimized DNA sequence of TRIM66-WT965-1160. All constructs were expressed in Escherichia coli BL21 (DE3). The construct of ASF1a1-156 inserted into a pRSFDuet plasmid (courtesy of Ruiming Xu Lab, Institute of Biophysics, Chinese Academy of Sciences) was expressed in E. coli BL21 (DE3) RIL. The construct of full-length H4 inserted into a pET3a plasmid was expressed in E. coli BL21 (DE3). The expression of full-length histone H3K56ac was performed in BL21 (DE3) cells transformed with pBK-AxcKRS3 and pET22b encoding H3 with amber codons at the K56 site[12]. The DNA fragment of full-length TRIM66 was synthesized by General Biosystems and ligated into fugw vector (Addgene). See the information of protein sequence in Supplementary Table 1.
The calorimetric experiments were performed at 25 °C using a MicroCal PEAQ-ITC. The proteins were dialyzed using a buffer containing 20 mM Tris and 100 mM NaCl at pH 7.5. Lyophilized peptides were dissolved in the same buffer and adjusted to pH 7.5 prior to use. Peptide concentrations were estimated from the quantitative NMR experiments[73],[74]. ITC measurements were performed via injection of 0.7–4 mM peptide into a cell containing 0.12 mM TRIM24-PHD-Bromo, 0.05 mM TRIM33 PHD-Bromo, and 0.05 or 0.11–0.15 mM TRIM66-PHD-Bromo (or its mutants). The ITC data were subsequently analyzed using the MicroCal PEAQ-ITC analysis software.

[4] = target: TRIM66-GSGS_(968-1160) (PHD-Bromodomain) (human) (UniProt O15016); assay: ITC; MicroCal PEAQ-ITC, 25 °C, 20 mM Tris, 100 mM NaCl, pH 7.5; 0.7-4 mM peptide injected into the cell with 0.12 mM TRIM24-PHD-Bromo, 0.05 mM TRIM33 PHD-Bromo, or 0.05 or 0.11-[…] TRIM66-PHD-Bromo (or its mutants); single measurement, errors from the fitting curve
[5] = target: T2, TRIM24_(824-1006) (PHD-Bromodomain) (human, UniProt O15164 824-1006); assay: ITC; MicroCal PEAQ-ITC, 25 °C, 20 mM Tris, 100 mM NaCl, pH 7.5; 0.7-4 mM peptide injected into the cell with 0.12 mM TRIM24-PHD-Bromo, 0.05 mM TRIM33 PHD-Bromo, or 0.05 or 0.11-0.15 mM TRIM66-PHD-Bromo (or its mutants); single measurement, errors from the fitting curve; settings: both partners purified
T2 construct: TRIM24 PHD-Bromodomain, Homo sapiens, residues 824-1006 of UniProt O15164 (Isoform long); also called TRIM24-PHD-Bromo; source: E. coli BL21 (DE3), purified (Ni column, SUMO protease, second Ni column, Superdex 75)
T2 sequence (looked up): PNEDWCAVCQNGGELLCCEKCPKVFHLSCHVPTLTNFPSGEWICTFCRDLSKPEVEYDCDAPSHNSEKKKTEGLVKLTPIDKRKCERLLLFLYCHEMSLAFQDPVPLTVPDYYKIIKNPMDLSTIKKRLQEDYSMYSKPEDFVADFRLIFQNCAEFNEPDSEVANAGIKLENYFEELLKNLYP

[6] = target: T3, TRIM33_(882-1087) (PHD-Bromodomain) (human, UniProt Q9UPN9 882-1087); assay: as above; settings: both partners purified
T3 construct: also called TRIM33 PHD-Bromo; source: E. coli BL21 (DE3), purified (Ni column, SUMO protease, second Ni column, Superdex 75)
T3 sequence (looked up): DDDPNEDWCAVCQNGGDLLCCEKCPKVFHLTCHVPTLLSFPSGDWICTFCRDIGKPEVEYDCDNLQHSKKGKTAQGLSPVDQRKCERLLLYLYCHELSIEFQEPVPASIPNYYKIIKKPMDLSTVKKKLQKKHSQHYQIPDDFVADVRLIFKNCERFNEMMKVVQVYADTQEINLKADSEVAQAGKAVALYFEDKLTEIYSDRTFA

[7] = target: T4, TRIM24_(824-1006) (human, UniProt O15164 824-1006); assay: ITC; 0.7–4 mM peptide injected into a cell with 0.05 or 0.11–0.15 mM TRIM66-PHD-Bromo (or its mutants), 0.12 mM TRIM24-PHD-Bromo or 0.05 mM TRIM33 PHD-Bromo; 25 °C; 20 mM Tris, 100 mM NaCl, pH 7.5; MicroCal PEAQ-ITC; single measurement; settings: both partners purified
T4 construct: TRIM24, human, PHD-Bromodomain, residues 824-1006, amplified from a human bone marrow cDNA library, in pET-SUMO-28a (+); also called TRIM24-PHD-Bromo; TRIM24 PHD-Bromodomain; source: E. coli BL21 (DE3), purified (Ni-chelating column, SUMO protease, second nickel column, Superdex 75)
T4 sequence (looked up): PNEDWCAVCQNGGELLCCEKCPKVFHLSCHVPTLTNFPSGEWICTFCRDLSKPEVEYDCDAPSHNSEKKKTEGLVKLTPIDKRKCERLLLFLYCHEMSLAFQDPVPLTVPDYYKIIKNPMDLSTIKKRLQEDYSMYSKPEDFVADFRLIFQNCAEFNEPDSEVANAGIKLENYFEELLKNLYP

[8] = target: T5, TRIM33_(882-1087) (human, UniProt Q9UPN9 882-1087); assay: as above; settings: both partners purified
T5 construct: also called TRIM33 PHD-Bromo; TRIM33 PHD-Bromodomain; source: E. coli BL21 (DE3), purified (Ni-chelating column, SUMO protease, second nickel column, Superdex 75)
T5 sequence (looked up): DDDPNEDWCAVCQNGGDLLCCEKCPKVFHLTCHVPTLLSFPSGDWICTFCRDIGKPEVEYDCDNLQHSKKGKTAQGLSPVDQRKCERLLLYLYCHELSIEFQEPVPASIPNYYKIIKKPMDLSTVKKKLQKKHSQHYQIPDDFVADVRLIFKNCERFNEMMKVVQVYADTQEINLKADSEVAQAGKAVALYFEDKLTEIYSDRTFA

[9] = ITC, 25 °C, pH 7.5, single measurement

H3_(1-12)R2me1 peptide (from UniProt P68431 2-13)
Kd [1]: 72.4 µM | stoichiometry N [2]: 0.91

CNCCCC[C@H](NC(=O)[C@@H](NC(=O)[C@H](CCCNC(=N)N)NC(=O)[C@H](C)N)[C@@H](C)O)C(=O)N[C@@H](CCC(N)=O)C(=O)N[C@H](C(=O)N[C@@H](C)C(=O)N[C@@H](CCCNC(=N)N)C(=O)N[C@@H](CCCCN)C(=O)N[C@@H](CO)C(=O)N[C@H](C(=O)NCC(=O)O)[C@@H](C)O)[C@@H](C)O [H3K4me1]
Kd [3, 9]: 42.8 ± 2.45 µM

H3_((1-15)-(48-57))K56ac peptide (from UniProt P68431 2-16; P68431 49-58)
Kd [1]: 0.52 µM | stoichiometry N [2]: 1.17

H3K4me3: trimethylated H3K4 peptide
KD [3, 9]: Weak binding

H3_(1-12)R2me2a peptide (from UniProt P68431 2-13)
Kd [1]: 110 µM | stoichiometry N [2]: 0.98

H3_(1-12)K4me1 peptide (from UniProt P68431 2-13)
Kd [1]: 42.8 µM | stoichiometry N [2]: 1.1

C[C@H](N)C(=O)N[C@@H](CCCNC(=N)N(C)C)C(=O)N[C@H](C(=O)N[C@@H](CCCCN)C(=O)N[C@@H](CCC(N)=O)C(=O)N[C@H](C(=O)N[C@@H](C)C(=O)N[C@@H](CCCNC(=N)N)C(=O)N[C@@H](CCCCN)C(=O)N[C@@H](CO)C(=O)N[C@H](C(=O)NCC(=O)O)[C@@H](C)O)[C@@H](C)O)[C@@H](C)O [H3R2me2a]
Kd [3, 9]: 110 ± 11.9 µM

H3K4me2: dimethylated H3K4 peptide
KD [3, 9]: Weak binding

H3_(48-57)K56ac peptide (from UniProt P68431 49-58)
Kd [1]: 109 µM | Kd [4]: 127 µM | stoichiometry N [4]: 1.23 | stoichiometry N [2]: 1.07

CNC(=N)NCCC[C@H](NC(=O)[C@H](C)N)C(=O)N[C@H](C(=O)N[C@@H](CCCCN)C(=O)N[C@@H](CCC(N)=O)C(=O)N[C@H](C(=O)N[C@@H](C)C(=O)N[C@@H](CCCNC(=N)N)C(=O)N[C@@H](CCCCN)C(=O)N[C@@H](CO)C(=O)N[C@H](C(=O)NCC(=O)O)[C@@H](C)O)[C@@H](C)O)[C@@H](C)O [H3R2me1]
Kd [3, 9]: 72.4 ± 3.27 µM

ARTKQTARKSTGGKALREIRRYQK(Ac)S [H3(1-15)-(48-57)K56ac]
binding (in words) ([3]; ITC, 25 °C, pH 7.5): higher affinity than that for the individual peptides | -T△S [3, 9]: 6.91 kcal per mol | N (stoichiometry) [3, 9]: 1.17±0.01 | △H [3, 9]: -15.5±0.15 kcal per mol | fold higher affinity than for the H3_1-12 peptide ([3]; ratio of KD): 30 fold | fold higher affinity than for the H3_48-57K56ac peptide ([3]; ratio of KD): 210 fold

B1: H3_(1-12)R2me1 peptide (peptide, UniProt P68431 2-13, looked up)
peptide: A[Arg(Me)]TKQTARKSTG
notes: histone H3.1, Homo sapiens, residues 1-12; also called H3R2me1; source: synthetic peptide (GL Biochem)
stoichiometry N [5]: 0.93 | stoichiometry N [6]: 0.8

B2: H3_(1-12)R2me2a peptide (peptide, UniProt P68431 2-13, looked up)
peptide: A[Arg(Me2a)]TKQTARKSTG
notes: histone H3, residues 1-12; also called H3R2me2a; asymmetrically dimethylated H3R2; source: synthetic peptide (GL Biochem, Shanghai)
Kd [7]: 76.8 µM | Kd [8]: 6.23 µM

B3: H3_(1-12)R2me1 peptide (peptide, UniProt P68431 2-13, looked up)
peptide: A[Arg(Me)]TKQTARKSTG
notes: histone H3, residues 1-12; also called H3R2me1; monomethylated H3R2; source: synthetic peptide (GL Biochem, Shanghai)
Kd [7]: 72.7 µM | Kd [8]: 5.1 µM

B4: H3_(1-12)R2me2a peptide (peptide, UniProt P68431 2-13, looked up)
peptide: A[Arg(Me2a)]TKQTARKSTG
notes: histone H3.1, Homo sapiens, residues 1-12; also called H3R2me2a; source: synthetic peptide (GL Biochem)
stoichiometry N [5]: 0.86 | stoichiometry N [6]: 1.06
